Experimental data reported in patent publication US20030129703A1 (Regeneron, published 2003).

Legend:
Fc-tagged human noggin = molecular target: T1, Fc-tagged human noggin (human, UniProt Q13253 28-232); assay: ELISA on plate-coated hBMP4
T1 construct: Secreted protein; also called hNG-Fc; not shown: Fc domain of human IgG1 (BspEI-NotI human IgG1 fragment), hinge and Fc
T1 sequence: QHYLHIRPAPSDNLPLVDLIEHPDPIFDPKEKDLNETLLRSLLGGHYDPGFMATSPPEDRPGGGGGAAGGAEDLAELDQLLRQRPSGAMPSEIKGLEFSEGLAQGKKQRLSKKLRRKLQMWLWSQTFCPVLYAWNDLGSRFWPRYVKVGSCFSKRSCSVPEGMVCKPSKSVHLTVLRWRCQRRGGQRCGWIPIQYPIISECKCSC
Method: Unbound hBMP4 was removed by washing four times with PBS, and the plates were blocked with 1% BSA in PBS. […] After a 1 hour incubation unbound anti-Fc●AP was removed by washing four times with TBS+0.1% Tween and then Alkaline Phosphatase substrate (para-nitrophenyl phosphate; Sigma) was added. Alkaline Phosphatase converts this substrate to a product whose production can be monitored by measuring Absorbance at 405 nm.
To determine if this hNG mutein was active, its ability to bind to hBMP4 was compared with that of hNG-Fc, which binds human Bone Morphogenetic Protein 4 (hBMP4) with affinity essentially identical to that of untagged hNG. An ELISA format assay where hBMP4 is captured on the surface of an ELISA plate was used to compare the two proteins.

hNGΔ133-179Fc = molecular target: T2, hNGΔ133-179Fc (human, UniProt Q13253 28-232); assay: binding to BMP4; assay not detailed
T2 construct: not shown: peptide bridge to the Fc; Fc domain of human IgG1
T2 sequence: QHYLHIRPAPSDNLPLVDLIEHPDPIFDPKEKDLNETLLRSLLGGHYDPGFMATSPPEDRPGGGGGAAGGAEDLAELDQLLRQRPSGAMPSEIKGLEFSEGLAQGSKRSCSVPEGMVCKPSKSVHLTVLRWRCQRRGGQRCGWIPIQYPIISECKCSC

binding result (Fc-tagged human noggin): binds
binding result (hNGΔ133-179Fc): no binding
B1: human Bone Morphogenetic Protein 4 (ligand, UniProt P12644 293-408, looked up)
chain: SPKHHSQRARKKNKNCRRHSLYVDFSDVGWNDWIVAPPGYQAFYCHGDCPFPLADHLNSTNHAIVQTLVNSVNSSIPKACCVPTELSAISMLYLDEYDKVVLKNYQEMVVEGCGCR
notes: also called hBMP4; BMP4
